{"source": "paper doi:10.1101/2020.10.20.346916", "about": "(bioRxiv, 2020)", "binders": {"B1": {"name": "human monoclonal antibody 28D9 (antibody, V domains shown)", "VH": "QVQLQQSGPGLVKPSQTLSLTCAISGDNVFSNSAAWNWIRQSPSRGLEWLGRTYYRSKWNNDYAVSVKGRITINPDTYKNQFSLQLNPVTPEDTAVYFCARVPMNRGGMDVWGQGTTVTVSS", "VL": "not shown"}, "B2": {"name": "human monoclonal antibody 1.6C7 (antibody, V domains shown)", "VH": "QVQLQQSGPGLVKPSQTLSLTCAISGDSVSSDSAAWNWIRQSPSRGLEWLGRTYFRSKWNNHYAVSVKSRITINPDTSKNQFSLLLNPVTPEDTAVYYCARATLARGALDYWGQGTLVTVSS", "VL": "not shown"}}, "key": {"[1]": {"target": "HCoV-OC43 spike ectodomain (HCoV-OC43, strain Paris, UniProt Q696P8)", "assay": "BLI"}, "[2]": {"target": "SARS-CoV-2 spike ectodomain (SARS-CoV-2, Wuhan-Hu-1, UniProt P0DTC2)", "assay": "BLI"}, "[3]": {"target": "GFP-tagged membrane-anchored full-length MHV spike protein (MHV, strain A59 (assumed as for the …, UniProt P11224))", "assay": "immunostaining of cells or tissue"}, "[4]": {"target": "HCoV-HKU1 spike ectodomain (HCoV-HKU1, strain Caen1, UniProt E0YJ44, strain)", "assay": "ELISA"}, "MHV spike S2 ectodomain": {"target": "MHV spike S2 ectodomain (MHV, strain A59, UniProt P11224)", "assay": "ELISA"}}}
{"binder": "B1", "values": [{"measurement": "Kd", "setting": "[1]", "result": 7.45, "unit": "nM"}, {"measurement": "Kd", "setting": "[2]", "result": 5.96, "unit": "nM"}, {"measurement": "binding result", "setting": "[3]", "result": "binds"}, {"measurement": "binding result", "setting": "[4]", "result": "no binding (tested: 10 μg/ml)"}, {"measurement": "binding result", "setting": "MHV spike S2 ectodomain", "result": "binds"}]}
{"binder": "B2", "values": [{"measurement": "Kd", "setting": "[1]", "result": 5.28, "unit": "nM"}, {"measurement": "binding result", "setting": "[3]", "result": "binds"}, {"measurement": "binding result", "setting": "[4]", "result": "no binding (tested: 10 μg/ml)"}, {"measurement": "binding result", "setting": "MHV spike S2 ectodomain", "result": "binds"}]}
